Assay results: the nanobody polyreactivity screen of Harvey et al. (2022)

Experiment: yeast display, Sf9 membrane polyspecificity reagent, FACS + sequencing; frameworks hold sequencing errors
Method in brief: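 A synthetic nanobody library was expressed on Saccharomyces cerevisiae BJ5465 by galactose induction for 36–48 hours. The library was stained for 1 hour at 4 °C with 10% biotinylated, detergent-solubilized Sf9 membrane reagent and enriched with streptavidin microbeads before FACS. Low and high (top ~1%) gates were set on anti-HA fluorescence for expression and streptavidin fluorescence for reagent binding, and each polyreactivity label reflects the gate of origin.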

Sequence | polyreactivity (PSR sort gate)
QVQLVESGGGLVQAGGSLRLSCAASGLIFTGYVMGWYRQAPGKERELVAVIRSGDSTYYADSVKGRFTISRDNAKNTVYLQMNSLKPEDTAVYYCAKYDTGGRAHDYWGQGTQVTVSS | low polyreactivity
QVQLVESGGGLVQAGGSLRLSCAASGLIFTVNAMGWYRQAPGKDRELVAAISGGDSTNYADSVKGRFTISRDNAKNTVYLQMNSLKPEDTAVYYCAVRGRAQYTSRRYGYWGQGTQVTVSS | high polyreactivity
QVQLVESGGGLVQAGGSLRLSCAASGLIFTWNAMGWYRQATGKERELVAAISTGGSTSYADSVKGRFTISRDNAKNTVYLQMNSLKPEDTAVYYCARDSSIWSHGSWYDYWGQGTQVTVSS | low polyreactivity
QVQLVESGGGLVQAGGSLRLSCAASGLIFTYYAMGWYRQAPGKERELVAAISGRGGSTYYADSVKGRFTISRDNAKNTVYLQMNSLKPEDTAVYYCAAVRWAGYVSDYGYWGQGTQVTVSS | high polyreactivity
QVQLVESGGGLVQAGGSLRLSCAASGLIFTYYAMGWYRQAPGKEREMVAAISSSGVNTYYADSVKGRFTISRDNAKNTVYLQMNSLKPEYTAVYYCAAELQPSPVGGIIQYGFDYWGQGTQVTVSS | low polyreactivity
QVQLVESGGGLVQAGGSLRLSCAASGLIFVGNAMGWYRQAPGKERELVAAISASTDNTYYADSVKGRFTISRDNAKNTVYLQMISLKPEDTAVYYCNAEQSRNSGKHDYWGQGTQVTVSS | low polyreactivity
QVQLVESGGGLVQAGGSLRLSCAASGLIFVINARGWYRQAPGKERELVAAIDYSGGSTYYADSVKGRFTISRDNAKNTVYLQMNSLKPEDTAVYYCAASKIGYWGDYFRYYYWGQGTQVTVSS | low polyreactivity
QVQLVESGGGLVQAGGSLRLSCAASGLIFVNAMGWYRQAPGKEREFVAAITYSTGSTYYADSVKGRFTISRDIAKNTVYLQMNSLKPEDTAVYYCAKDRSGHGTERDYWGQGTQVTVSS | low polyreactivity
QVQLVESGGGLVQAGGSLRLSCAASGLIFVPYAMGWYRQAPGKERELVATISARGASTYYADSVKGRFTISRDNAKNTVYLQMNSLKPEDTAVYYCATRNYGRASYDYWGQGTQVTVSS | high polyreactivity
QVQLVESGGGLVQAGGSLRLSCAASGLIFVSNAMGWYRQAPGKERELVAAISWSGSRTYYADSVKGRFTISRENAKNTVYLQMNSLKPEDTAVYYCNAVRRGLPVVGAYDYWGQGTQVTVSS | high polyreactivity
QVQLVESGGGLVQAGGSLRLSCAASGLIFVSYAMGWYRQAPGKERELVAAISSGGSTYYADSVKGRFTISRDNAKNTVYLQINSLKPEDTAVYYCAAEYVFRGYVGYDYWGQGTQVTVSS | low polyreactivity
QVQLVESGGGLVQAGGSLRLSCAASGLIFVSYAMGWYRQAPGKERELVASITYSGGGTYYADSVKGRFTISRDYAKNTVYLQMNSLKPEDNAVYYCNADVCWCYSVYREYCMDYWGQGTQVTVSS | low polyreactivity
QVQLVESGGGLVQAGGSLRLSCAASGLIFVVYAMGWYRQAPGKERELVAVISSDGGTYYADSVKGRFTISRDNAKNTVYLQMNSLKPEDTAVYYCAALGYPNARTSRISYFRYDYWGQGTQVTVSS | high polyreactivity
QVQLVESGGGLVQAGGSLRLSCAASGLIFVWYDMGWYRQAPGKERELVATISSDGITNYADSVKGLFTISRDNAKNTVYLQMNSLKPEDTAVSYCNAGPDDYVGYWGKYDYWGQGTQVTVSS | low polyreactivity
QVQLVESGGGLVQAGGSLRLSCAASGLIFWHYAMGWYRQAPGKERELVAAISRRGGSTYYADSVKGRFTISRDNAKNTVYLQMNSLKPEDTAVYYCAADVWGSSAQRGWRKDYYWGQGTQVTVSS | high polyreactivity
QVQLVESGGGLVQAGGSLRLSCAASGLIFYAKAMGWYRQAPGKEREFVAAITYRGGSTYYADSVKGRFTISRDKAKNTVYLQMNCLKPEATAVYYCATVTDRYPYIRRYHFPYYYWGQGTQVTVSS | high polyreactivity
QVQLVESGGGLVQAGGSLRLSCAASGLIFYAYAMGWYRQAPGKERELVAGIWIDDSTYYADSVKGRFTISRDNAKNTVYLQMNSLKPEDTAVYYCNKRVRSYYLYRGDYWGQGTQVTVSS | low polyreactivity
QVQLVESGGGLVQAGGSLRLSCAASGLIFYDNMGWSRQAPGKERELVAAISSSGGSTSYADSVKGRFTISRDNAKNTVYLQMNSLKPADTAVYYCAADSYPAYLGFVGFDYWGQGTQVTVSS | low polyreactivity
QVQLVESGGGLVQAGGSLRLSCAASGLIFYDNMGWYRQAPGKERELVAAISSSGGSTSYADSVKGRFTISRDNAKNTVYLQMISLKPEDTAVYYCAADSSPAFLGFVGFEYWGQGTEVTVSS | low polyreactivity
QVQLVESGGGLVQAGGSLRLSCAASGLIFYDNMGWYRQAPGKERELVAAISSSGGSTSYADSVKGRFTISRDNAKNTVYLQMNSLKPVDTAVYYCAADSYPAYLGFVGFDYWGQGTQVTVSS | low polyreactivity
QVQLVESGGGLVQAGGSLRLSCAASGLIFYGNAMGWYRQEPGKERELVAAISWSGGNTSYADSVKGRFTISRDNAKNTVYLQMNSLKPEVTAVYYCNADSLPSVERYGYWGQGTQVTVSS | low polyreactivity
QVQLVESGGGLVQAGGSLRLSCAASGLIFYGYVMGWYRHAPGKERELVAGISRNYGSTYYADSVKGRFTISRDNAKHTVYLQMNSLKPEDTAVYYCAALTFEAWAGEDYWGQGTQVTVTS | low polyreactivity

Sequence | polyreactivity (PSR sort gate)
QVQLVESGGGLVQAGGSLRLSCAASGLIFYKYAMGWYRQAPGKERELVAAITRGGGSTSYADSVKGRFTISRDNAKNTVYLQMNCLKPEDTAVYYCNAAPYTRALQGEFDYWGQGTQVTVSS | high polyreactivity
QVQLVESGGGLVQAGGSLRLSCAASGLIFYKYAMGWYRQAPGKERELVASISTGGGSTYYADSVKGRFTISRDNAKNTVYLQMNSLKPEDTAVYYCAARWWSRFRGSHSLYDYWGQGTQVTVSS | high polyreactivity
QVQLVESGGGLVQAGGSLRLSCAASGLIFYLYAMGWYRQAPGKEREFVAGINWSGGNTYADSVKGRFTISRDNAKNTVYLQLNSLKPEDTAVYYCAADSLIYTHPYQYDYWGQGTQVTVSS | low polyreactivity
QVQLVESGGGLVQAGGSLRLSCAASGLIFYLYTMGWYRQAPGKERELVAAISRSGTITYYADSVKGRFTISRDNAKNSVYLQMNSLKPEDTAVYYCAATYTYKIGTRYDYWGQGTQVNVSS | high polyreactivity
QVQLVESGGGLVQAGGSLRLSCAASGLIFYQYAMGWYRQAPGKESELVAAISRSGGRTNYADSVKGRFTISRDNAKNTVYLQMNSLKPEDTAVYYCNAVHYFLYGYYSWGQGTQVSVSS | high polyreactivity
QVQLVESGGGLVQAGGSLRLSCAASGLIFYRNAMGWYRQAPGKERELVAAIRFSTGSTYYADSVKGRFTISRDNAKNSVYLQMNSLKPEDSAVYCCAAALPGYGDYYYWGQGTQVTVSS | high polyreactivity
QVQLVESGGGLVQAGGSLRLSCAASGLIFYRYAMGWYRQAPGKERELVAAISSSGVSTYYADSVKGRFTISRDNAKNTVYLQMNSLIPEDTAVYYCAADVGSRSYSYDYWGQGTQVTVSS | low polyreactivity
QVQLVESGGGLVQAGGSLRLSCAASGLIFYRYTMGWYRQAPGKERELVAAISWSGGRTYYADSVKGRFTISRDNAKNTVYLQMNSLKPEDTAVYYCNAVYYYTRASVPYDYWGQGTQVTVSS | high polyreactivity
QVQLVESGGGLVQAGGSLRLSCAASGLIFYVYARGWYRQAPGKERELVAAIRYRGGTTHYADSVKGRFTISRDNAKNTVYLQMNSLKPEDTAVYYCAADGYVYRSGRRYDYWGQGTQVTVSS | high polyreactivity
QVQLVESGGGLVQAGGSLRLSCAASGLIFYWYAMGWYRQAPGKERELVAAITWSGGITYYADSVKGRFTISRDNAKNTVYLQMNSLKPEDTAVYYCAADDDYGDVTYDYWGQGTQVTVSS | low polyreactivity
QVQLVESGGGLVQAGGSLRLSCAASGLIIAHYAMGWYRQAPVKERELVAAITSGSSTYYADSVKGRFTISRDNAKNNVYLQMNSLKPEDTAVYYCAAKETHSAYRSSGNYWGQGTQVTVSS | low polyreactivity
QVQLVESGGGLVQAGGSLRLSCAASGLIIDGYAMGWSRQAPGKERELVATITVSGTSTYYADSVKGRFTISRDNAKNTVYLQMNSLKPEDTAVYYCDTDRNYGYYFVEYDHDYWGQGTQVTVSS | low polyreactivity
QVQLVESGGGLVQAGGSLRLSCAASGLIIGYNAMGLYRQAPGKERELVAAISRSGTHTYYADSVKGRFTISRDNAKNTFNLQMNSLIPEDTAVYYCNATNRRWHRPYSTYWYYYWGQGTQVTVSS | high polyreactivity
QVQLVESGGGLVQAGGSLRLSCAASGLIITAYAMGWYRQAPGKERELVAAITGSGGRTYYADSVKGRFTISRDNAKNTVYLQMNSLKPEDTAVYYCAADFPARGSSTSDYWGQGTQVTVSS | high polyreactivity
QVQLVESGGGLVQAGGSLRLSCAASGLIIWYYAMGWYRQAPGKERELVAAISRSGGRTYYADSVKGRFTISRDNAKNTVYLQMNSLKPEDTAVNYCNADVYRGYDYWGQGTQVTVSS | high polyreactivity
QVQLVESGGGLVQAGGSLRLSCAASGLIIYRYGMGWYRQAPGKERELVAAISYSGSSTYYADSVKGRFTISRDNAKNTVYLQMISLKPEDTAVYYCAAQSTRPYPGRYYYWGQGTQVTVSS | high polyreactivity
QVQLVESGGGLVQAGGSLRLSCAASGLIIYYYAMGWYRQAPGKERELVAAISGSSGASTYYADSVKGRFTISRVNAKNTVYIQMNSLKPEDSAVYYCAADRGYWRYDYWGQGTQVTVSS | low polyreactivity
QVQLVESGGGLVQAGGSLRLSCAASGLILANYAMGWYRQAPGKERELVAAISSSGGSTYYADSVKGRFTISRDNAKNTVYLQMNSLKPEDTAVYYCAAYPLYRRRWTGDYWGQGTQVTVSS | high polyreactivity
QVQLVESGGGLVQAGGSLRLSCAASGLILKYYAMGWYRQAPGKEREFVAAITRRGGITYYADSVKGRFTISRDNAKNTVYLQMNSLKPEDTAVYSCAADPILGSLAYWRYSYPLYDYWGQGTQVTVSS | low polyreactivity
QVQLVESGGGLVQAGGSLRLSCAASGLILNYYTMGWYRQAPGKERELVATISSSTGSTYYADSVKGRFTISRDNAKNTVYLQMNSLKPEDTAVYYCAADHWSYWQIYDYWGQGTQVTVSS | low polyreactivity
QVQLVESGGGLVQAGGSLRLSCAASGLILRKYAMGWYRQAPGKEREFVAAITQTGSRTYYADSVKGRFTISRDNAKNPVYLQMNSLKPEDTAVYYCAADLPRWGSYGYGKMDHWGQGTQVTVSS | high polyreactivity
